The source of these data is patent publication US20260209325A1 (SCHOLAR ROCK, published 2026).

The chains are these.
B1: Ab133 (antibody, human IgG4 S228P, kappa, V domains shown)
VH: EVQLVESGGGLVQPGGSLRLSCAASGFTFSSYGMSWVRQAPGKGLELVASFTGSGGAYYPDSVKGRFTISRDNAKNSLYLQMNSLRAEDTAVYYCARDLLIRFLEWSHYYGMDVWGQGTTVTVSS
VL: DIVMTQSPLSLPVTPGEPASISCRSSQSLLHSSGHNFLHWYLQKPGQSPQLLIYEVSNRVSGVPDRFSGSGSGTDFTLKISRVEAEDVGVYYCQQQTQYPGTFGGGTKVEIKR
notes: human IgG4 in the EM experiment; also called Ab133 Human IgG4
B2: Ab130 (antibody, human IgG4 S228P, kappa, V domains shown)
VH: EVQLVESGGGLVQPGGSLRLSCAASGFTFTSYGMSWVRQAPGKGLELVASITGSGGETYYPDSVKGRFTISRDNAKNSLYLQMNSLRAEDTAVYYCARDLLVRFLEWSHYYGMDVWGQGTTVTVSS
VL: B1 VL with V56T, V60A, S61P, V63I, Q96A, Y99F, G101R, T102P
B3: Ab139 (antibody, human IgG4 S228P, kappa, V domains shown)
VH: B1 VH with G56A
VL: B1 VL with V56S, G101P
B4: Ab140 (antibody, human IgG4 S228P, kappa, V domains shown)
VH: B1 VH with A57T, L99N
VL: B1 VL with V60E, G101P
B5: Ab105 (antibody, human IgG4 S228P, kappa, V domains shown)
VH: B1 VH with F27S, T28A, F51I, T52G, S54T, G56A, A57T, I101V, S107G
VL: DIVMTQSPLSLPVTPGEPASISCRSSQSLLHSSGYNFLHWYLQKPGQSPQLLIYAASSRAPGIPDRFSGSGSGTDFTLKISRVEAEDVGVYYCMHGGQGPTFGGGTKVEIKR
B6: Ab131 (antibody, human IgG4 S228P, kappa, V domains shown)
VH: B1 VH with F27S, T28A, F51I, T52G, S54T, G56A, A57T, I101V, S107G
VL: B5 VL with M94Q
B7: Ab102 (antibody, human IgG4 S228P, kappa, V domains shown)
VH: B2 VH
VL: B1 VL with V56T, V60A, S61P, V63I, Q94M, Q96A, Y99F, G101R, T102P
B8: Ab125 (antibody, human IgG4 S228P, kappa, V domains shown)
VH: EVQLVQSGAEVKKPGESLKISCKGSGNRISDYWMNWVRQVPGKGLEWMGNIYPGYSDATYNRKFKGQVTISADKSISTAYLQWSSLKASDTAIYYCARGRDGYNYFAAFDIWGQGTMVTVSS
VL: EIVLTQSPATLSLSPGERATLSCRASQSVASSYLAWYQQKPGQAPRLLIYDTSSRAAGIPARFSGSGSGTDFTLTISSLEPEDFAVYYCHQYGSSLTTFGGGTKVEIKR
B9: Ab120 (antibody, human IgG4 S228P, kappa, V domains shown)
VH: QVQLVQSGAEVKKPGASVKVSCKVSGGTFSTFHIHWVRQAPGKGLEWMGGISAYSGSTIYAQKFQGRVTMTEDTSTDTAYMELSSLKSEDTAVYYCARARYVDDAFDIWGQGTMVTVSS
VL: DIQMTQSPSSVSASVGDRVTITCRASEDISNFLAWYQQKPGKAPKLLIYAASDLLSGVPSRFSGSGSGTDFTLTISSLQPEDFANYYCQKYISAPSFGGGTKVEIKR
B10: Ab116 (antibody, human IgG4 S228P, kappa, V domains shown)
VH: QVQLVQSGAEVKKPGASVKVSCKVSGFTFSRPAIHWVRQAPGKGLEWMGGINPNAATTIYAQKFQGRVTMTEDTSTDTAYMELSSLKSEDTAVYYCARGRLLREWELRPYDTWGQGTLVTVSS
VL: DIQMTQSPSSVSASVGDRVTITCRASQSIGKSLAWYQQKPGKAPKLLIYSASNLRSGVPSRFSGSGSGTDFTLTISSLQPEDFANYYCQQYRDVPPITFGGGTKVEIKR

Changes are numbered by the printed parent chain.

Sequence of mouse GDF-11 (Q9Z1W4 297-405 limits assumed): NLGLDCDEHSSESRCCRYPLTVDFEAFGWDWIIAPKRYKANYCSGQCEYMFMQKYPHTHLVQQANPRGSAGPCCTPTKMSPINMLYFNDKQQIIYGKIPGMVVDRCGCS

One assay has as its target T1, recombinant human latent myostatin (human, UniProt O14793 24-375, biotinylated (in the Octet pH assay only)). Briefly: cell-based or functional assay.
On to B1, for which the “IC50 of inhibition of myostatin activation by mTLL-2 (functional ELISA, FIG. 1B)” value was 0.16 nM.
With B2, the “IC50 of inhibition of myostatin activation by mTLL-2 (functional ELISA, FIG. 1A)” value was found to be 0.31 nM and the “IC50 of inhibition of myostatin activation by mTLL-2 (functional ELISA, FIG. 1B)” value was determined as 0.3 nM.

The target of another assay is T1, recombinant human latent myostatin. Briefly: BLI (Octet Red384): streptavidin biosensors loaded with biotinylated human latent myostatin, antibody association 300 s, dissociation in PBS at pH 7.4 or pH 5.5. The procedure:
(§1) Binding was performed at pH 7.4 and dissociation at pH 5.5 in an Octet Red384@assay. Streptavidin biosensors were baselined in 1x kinetics buffer (KB) (Sartorius) for one minute, then loaded with 100 nM biotinylated human latent myostatin for five minutes, followed by another baseline step of one minute in 1x KB. Binding of test antibodies was performed for five minutes and then dissociation was performed in PBS at either pH 7.4 or pH 5.5 for five minutes. Analysis was performed using a partial fit, in which full dissociation was projected. Kd at pH 5.5 was divided by Kd at pH 7.4 to calculate pH sensitivity.
A general note: In BLI a coated tip is dipped into the sample, and binding shifts an interference pattern.
As to B3, the “fold difference in off-rate (Kd at pH 5.5 / Kd at pH 7.4)” value was found to be 16.3 fold.
On the same count and under the same terms, as for B4, the figure is 10.4 fold.

The target of the next assay is T2, human pro-myostatin (human, UniProt O14793 24-375, biotinylated (in the SPR assay)).
T2 construct: Disulfide-linked homodimer; also called proGDF8 (human)
Briefly: Ab KD, summary Table 11; method and antigen not stated there.
As to B1, the Kd was 0.041 nM.
Still for that read-out and setting: as for B2, the figure is 0.35 nM; as for B5, 0.229 nM; as for B6, 0.155 nM.
Same read-out and setting: next, B7: 0.329 nM.

Another assay addresses T1, recombinant human latent myostatin. In words: cell-based or functional assay. This is another data set of the same source.
With B1, the “mTLL2 IC50” value came out at 0.161 nM.
On the same count and under the same terms, next, B2: 0.33 nM.
For B5, the “mTLL2 IC50” value came out at 0.25 nM.
The same measure, in the same setting: next, B6: 0.208 nM; B7: 0.346 nM.

For another assay the target is unchanged. In words: BLI Octet Red384, biotin human latent myostatin on streptavidin tips. On the procedure: as §1
Regarding B1, the “fold difference in off-rate (Kd at pH 5.5 / Kd at pH 7.4)” value was 17.5 fold.
As to B2, the “fold difference in off-rate (Kd at pH 5.5 / Kd at pH 7.4)” value was 10.6 fold.
Still for that read-out and setting: as for B5, the figure is 0.8 fold.
The same measure, in the same setting: as for B6, the figure is 0.9 fold; as for B7, 9.3 fold.

A further assay concerns the target mouse GDF-11 (mouse, UniProt Q9Z1W4 297-405, limits assumed). In words: plate binding assay, OD 450 nm, one antibody concentration that is not given, on Mu-GDF-11 (method not described in the text).
Regarding B8, the binding result is reported as “no binding”.
For B9, the binding result is “no binding”.
Still for that read-out and setting: next, B10: “no binding”.

For the next assay, the target named is T3, murine pro-myostatin (mouse, UniProt O08689 25-376, biotinylated (in the SPR assay)).
T3 construct: also called proGDF8 (mouse); mouse pro-myostatin
Briefly: plate binding assay, OD 450 nm, antibody titrated 0.0003 to 100 nM, panel 'Mu-Pro-GDF-8 Plate 2' (method not described in the text).
Turning to B9, the binding result was “binds”.
For B10, the “EC50 (read off the curve)” value was approximately 1 nM.

Another assay deals with T2, human pro-myostatin. In words: cell-based or functional assay.
In the case of B5, the “IC50 (nM) Pro + Furin” value is 0.356 nM.
Same read-out and setting: as for B7, the figure is 0.211 nM.

Another assay concerns the target T1, recombinant human latent myostatin. In words: cell-based or functional assay. The source holds these as a separate data set.
On to B1, for which the “IC50 (nM) Latent + mTLL2” value amounted to 0.161 nM.
The same measure, in the same setting: next, B5: 0.25 nM; B7: 0.162 nM; B8: 0.202 nM.

The next assay deals with human GDF-11 (human, UniProt O95390 299-407, limits assumed). Briefly: plate binding assay, OD 450 nm, one antibody concentration that is not given, on Hu-GDF-11 (method not described in the text).
Sequence of human GDF-11 (O95390 299-407 limits assumed): as the sequence (Q9Z1W4 297-405 limits assumed) above
As to B8, the binding result is “no binding”.
On the same count and under the same terms, as for B9, the entry is “no binding”.
Still for that read-out and setting: as for B10, the entry is “no binding”.

The target in another assay is T2, human pro-myostatin. In words: plate binding assay, OD 450 nm, antibody titrated 0.0003 to 100 nM, panel 'Hu-Pro-GDF-8 Plate 2' (method not described in the text).
Turning to B10, the “EC50 (read off the curve)” value was approximately 1 nM.

The next assay has as its target T3, murine pro-myostatin. In words: plate binding assay, OD 450 nm, antibody titrated 0.0003 to 100 nM, panel 'Mu-Pro-GDF-8 Plate 3' (method not described in the text).
Turning to B8, the “EC50 (read off the curve)” value is approximately 0.2 nM.

The next assay concerns the target T3, murine pro-myostatin. In words: SPR Biacore 8K, biotin-antigen captured.
On to B1, for which binding was put at a Kd of 0.054 nM, the koff was determined as 0.000162 s⁻¹ and the kon came out at 3.01e+06 M⁻¹ s⁻¹.
The like results for B5 were, in that order, 0.046 nM, 0.000276 s⁻¹ and 5.99e+06 M⁻¹ s⁻¹.
On to B7, for which the Kd came to 0.082 nM, the koff turned out to be 0.0005 s⁻¹ and the kon was 6.11e+06 M⁻¹ s⁻¹.
The like results for B8 were, in that order, 0.125 nM, 0.000411 s⁻¹ and 3.29e+06 M⁻¹ s⁻¹.

The target in the next assay is T2, human pro-myostatin. In words: SPR Biacore 8K, biotin-antigen captured. A general note: Surface plasmon resonance follows binding to a sensor surface in real time, without labels.
The molecule B1 gave a Kd of 0.041 nM, a koff of 0.000116 s⁻¹ and a kon of 2.84e+06 M⁻¹ s⁻¹.
The like results for B5 were, in that order, 0.051 nM, 0.000247 s⁻¹ and 4.89e+06 M⁻¹ s⁻¹.
Take B7: the Kd was determined as 0.058 nM, the koff is 0.000376 s⁻¹ and the kon stood at 6.49e+06 M⁻¹ s⁻¹.
As to B3, binding was put at a Kd of 0.121 nM, the koff stood at 0.0023 s⁻¹ and the kon was 1.9e+07 M⁻¹ s⁻¹.
The like results for B4 were, in that order, 0.109 nM, 0.000711 s⁻¹ and 6.53e+06 M⁻¹ s⁻¹.

Another assay has as its target T4, cyno pro-myostatin (cynomolgus monkey, Biotinylated for capture in the SPR assay (site not stated). The native form is a disulfide-linked homodimer, partly furin-cleaved; one chain is given.).
T4 construct: also called proGDF8 (cynomolgus); cynomolgus monkey pro-myostatin
Briefly: SPR Biacore 8K, biotin-antigen captured.
Turning to B1, binding was put at a Kd of 0.0383 nM, the koff was 0.000109 s⁻¹ and the kon was determined as 2.86e+06 M⁻¹ s⁻¹.
In the same order, the values of B5 are 0.044 nM, 0.000233 s⁻¹ and 5.26e+06 M⁻¹ s⁻¹.
The like results for B7 were, in that order, 0.049 nM, 0.000335 s⁻¹ and 6.8e+06 M⁻¹ s⁻¹.

Broadly, the Kd is a measure of binding affinity in units of concentration. A high value points to weaker binding. In general, EC50 (read off the curve) refers to the concentration that produces a half-maximal response. For orientation: koff means a measure of how fast the partners let go of each other. By kon is commonly meant the second-order rate constant of association. A low value points to slower complex formation.
